Results: patent US10781262B2, “Combination therapy of T cell activating bispecific antigen binding molecules and PD-1 axis binding antagonists” (Hoffmann-La Roche Inc., priority 2014, dated 2020)
Residue numbers refer to the chain shown, from its start. Like-named read-outs stand apart in the source and are kept apart here.

B1: 36F2: anti-FolR1 clone, generic multi-framework library (Vk_3_20/VH_1_46); Fab and IgG (antibody, V domains shown)
VH: QVQLVQSGAEVKKPGASVKVSCKASGYTFTSYYMHWVRQAPGQGLEWMGIINPSGGSTSYAQKFQGRVTMTHDTSTSTVYMELSSLRSEDTAVYYCARSFFTGFHLDYWGQGTLVTVSS
VL: EIVLTQSPGTLSLSPGERATLSCRASQSVSSSYLAWYQQKPGQAPRLLIYGASSRATGIPDRFSGSGSGTDFTLTISRLEPEDFAVYYCQQYTNEHYYTFGQGTKVEIK
B2: 5D9: anti-FolR1 clone, generic multi-framework library (Vk3_20/VH1_46); Fab and IgG (antibody, V domains shown)
VH: QVQLVQSGAEVKKPGASVKVSCKASGYTFTSYYMHWVRQAPGQGLEWMGIINPSGGSTSYAQKFQGRVTMTRDTSTSTVYMELSSLRSEDTAVYYCARSYIDMDYWGQGTLVTVSS
VL: EIVLTQSPGTLSLSPGERATLSCRASQSVSSSYLAWYQQKPGQAPRLLIYGASSRATGIPDRFSGSGSGTDFTLTISRLEPEDFAVYYCQQDNWSPTFGQGTKVEIK
B3: 6B6: anti-FolR1 clone, generic multi-framework library (Vk3_20/VH1_46); Fab and IgG (antibody, V domains shown)
VH: B2 VH with I101V
VL: B2 VL with N93I
B4: 11F8: anti-FolR1 clone, generic multi-framework library (Vk_1_5/VH_1_69); Fab and IgG (antibody, V domains shown)
VH: QVQLVQSGAEVKKPGSSVKVSCKASGGTFSSYAISWVRQAPGQGLEWMGGIIPIFGTANYAQKFQGRVTITADKSTSTAYMELSSLRSEDTAVYYCARAVFYRAWYSFDYWGQGTTVTVSS
VL: DIQMTQSPSTLSASVGDRVTITCRASQSISSWLAWYQQKPGKAPKLLIYDASSLESGVPSRFSGSGSGTEFTLTISSLQPDDFATYYCQQYTSPPPTFGQGTKVEIK

Tests used:
cynomolgus FolR1 [1] = conditions: IgG injected for 60 seconds at 500 nM
Description: (§1) Binding of FolR1 binders as IgG or in the T-cell bispecific format to different recombinant folate receptors (human FolR1, 2 and 3, murine FolR1 and cynomolgus FolR1; all as Fc fusions) was assessed by surface plasmon resonance (SPR). All SPR experiments were performed on a Biacore T200 at 25° C. with HBS-EP as running buffer (0.01 M HEPES pH 7.4, 0.15 M NaCl, 3 mM EDTA, 0.005% Surfactant P20, Biacore, Freiburg/Germany).
(§2) First the anti-FolR1 IgGs were analyzed by single injections (Table 1) to characterize their crossreactivity (to human, murine and cyno FolR1) and specificity (to human FolR1, human FolR2, human FolR3). Recombinant biotinylated monomeric Fc fusions of human, cynomolgus and murine Folate Receptor 1 (FolR1-Fc) or human Folate Receptor 2 and 3 (FolR2-Fc, FolR3-Fc) were directly coupled on a SA chip using the standard coupling instruction (Biacore, Freiburg/Germany). The immobilization level was about 300-400 RU. The IgGs were injected for 60 seconds at a concentration of 500 nM.

human FolR1 [2] = target: T1, human FolR1 (Homo sapiens, UniProt P15328); conditions: IgG injected for 60 seconds at 500 nM
Description: as §1, §2

human FolR2 [3] = target: T2, human FolR2 (Homo sapiens, UniProt P14207); conditions: IgG injected for 60 seconds at 500 nM
Description: as §1, §2

human FolR3 [4] = target: T3, human FolR3 (Homo sapiens, UniProt P41439); conditions: IgG injected for 60 seconds at 500 nM
Description: as §1, §2

murine FolR1 [5] = target: murine FolR1 (Mus musculus, UniProt P35846); conditions: IgG injected for 60 seconds at 500 nM
Description: as §1, §2

[6] = target: T4, human Folate Receptor 1 (FolR1-Fc) (Homo sapiens, UniProt P15328); experiment: SPR avidity to Folate Receptor 1 (bivalent binding)
T4 construct: the extracellular domain of the antigen linked to the hinge region of Fc-knob; made in house; host or cells: HEK293 EBNA
From the text: The immobilization level was about 300-400 RU. […] The dissociation was monitored for 600 seconds.

[7] = system: cynomolgus Folate Receptor 1 (FolR1-Fc); conditions: bivalent binding (avidity), ligand cyFolR1
Description: as §1
(§3) The avidity of the interaction between the anti-FolR1 IgGs or T cell bispecifics and the recombinant folate receptors was determined as described below (Table 9). Recombinant biotinylated monomeric Fc fusions of human, cynomolgus and murine Folate Receptor 1 (FolR1-Fc) were directly coupled on a SA chip using the standard coupling instruction (Biacore, Freiburg/Germany). The immobilization level was about 300-400 RU. The anti-FolR1 IgGs or T cell bispecifics were passed at a concentration range from 2.1 to 500 nM with a flow of 30 μL/minutes through the flow cells over 180 seconds. The dissociation was monitored for 600 seconds. […] The binding curves resulting from the bivalent binding of the IgGs or T cell bispecifics were approximated to a 1:1 Langmuir binding and fitted with that model (which is not correct, but gives an idea of the avidity). The apparent avidity constants for the interactions were derived from the rate constants of the fitting using the Bia Evaluation software (GE Healthcare).

[8] = target: murine Folate Receptor 1 (FolR1-Fc) (Mus musculus, UniProt P35846); conditions: bivalent binding (avidity), ligand muFolR1; 19H3 IgG with folate 2.3 μM in running buffer
Description: as §1, §3

huFolR1-Fc = experiment: SPR epitope binning; format: binding, human
Description: 500 nM huFolR1-Fc was then captured for 60 s, followed by 500 nM of the different binders for 30 s. The surface was regenerated with two injections of 10 mM glycine pH 2 for 30 s each.

[9] = system: HEK cells transiently transfected with human FolR1 or human FolR2; experiment: Flow cytometry specificity on transfected HEK cells; format: binding; conditions: IgG
Description: FIGS. 3A-B depict graphs summarizing specificity of FolR1 binders for FolR1. Binding of FolR1 IgGs to HEK cells transiently transfected with either FolR1 or FolR2 was analyzed by flow cytometry to identify clones which bind specifically to FolR1 and not to FolR2.
(§4) New FolR1 hinders were generated via Phage Display using either a Fab library or a common light chain library using the CD3 light chain. The identified binders were converted into a human IgG1 format and binding to FolR1 high expressing HeLa cells was addressed. As reference molecule the human FolR1 binder Mov19 was included. […] In a next step the selected clones were tested for specificity to human FolR1 by excluding binding to the closely related human FolR2. HEK cells were transiently transfected with either human FolR1 or human FolR2 to address specificity. […] Therefore these clones were excluded from further characterization. In parallel cross-reactivity of the FolR1 clones to cyno FolR1 was addressed by performing binding studies to HEK cells transiently transfected with cyno FolR1. […] Subsequently three human FolR1 specific cyno cross-reactive binders were converted into TCB format and tested for induction of T cell killing and T cell activation. […] As reference molecule Mov19 FolR1 TCB was included in all studies. These FoLR1 TCBs were then used to compare induction of internalization after binding to FolR1 on HeLa cells.

[10] = system: HEK cells transiently transfected with cyno FolR1; experiment: Flow cytometry cross-reactivity on transfected HEK cells; format: binding, cynomolgus; conditions: IgG
From the text: FIGS. 4A-B depict graphs summarizing cross-reactivity of FolR1 binders to cyFoLR1. Cross-reactivity of the FolR1 antibodies to cyno FolR1 was addressed on HEK cells transiently transfected with cyFolR1 by flow cytometry.
as §4

human FolR2 [11] = target: T2, human FolR2; experiment: SPR affinity of selected Fab clones (ProteOn XPR36); format: binding; parameters: the extracellular domain of the antigen linked to the hinge region of Fc-knob; made in house; host or cells: HEK293 EBNA; conditions: Fab-format, generic multi-framework sub-libraries, 25° C.
human FolR3 [12] = target: T3, human FolR3; experiment: as above; format: binding; parameters: the extracellular domain of the antigen linked to the hinge region of Fc-knob; made in house; host or cells: HEK293 EBNA; conditions: Fab-format, generic multi-framework sub-libraries, 25° C.
cynomolgus FolR1 [13] = conditions: read-out: KD cyFolR1; Fab-format, generic multi-framework sub-libraries, 25° C.
Description: (§5) Immobilization of antigens (ligand): Recombinant antigens were diluted with PBST (10 mM phosphate, 150 mM sodium chloride pH 7.4, 0.005% Tween 20) to […] injected at 30 μl/minute in vertical orientation. Injection of analytes: For ‘one-shot kinetics’ measurements, injection direction was changed to horizontal orientation, two-fold dilution series of purified Fab (varying concentration ranges) were injected simultaneously along separate channels 1-5, with association times of 200 s, and dissociation times of 600 s. Buffer (PBST) was injected along the sixth channel to provide an “in-line” blank for referencing. Association rate constants (kon) and dissociation rate constants (koff) were calculated using a simple one-to-one Langmuir binding model in ProteOn Manager v3.1 software by simultaneously fitting the association and dissociation sensorgrams. The equilibrium dissociation constant (KD) was calculated as the ratio koff/kon.
(§6) Immobilization of antigens (ligand): Recombinant antigens were diluted with PBST (10 mM phosphate, 150 mM sodium chloride pH 7.4, 0.005% Tween 20) to 10 μg/ml, then injected at 30 μl/minute in vertical orientation. Injection of analytes: For ‘one-shot kinetics’ measurements, injection direction was changed to horizontal orientation, two-fold dilution series of purified Fab (varying concentration ranges) were injected simultaneously along separate channels 1-5, with association times of 150 or 200 s, and dissociation times of 200 or 600 s, respectively. Buffer (PBST) was injected along the sixth channel to provide an “in-line” blank for referencing. Association rate constants (kon) and dissociation rate constants (koff) were calculated using a simple one-to-one Langmuir binding model in ProteOn Manager v3.1 software by simultaneously fitting the association and dissociation sensorgrams. The equilibrium dissociation constant (KD) was calculated as the ratio koff/kon.

human FolR1 [14] = target: T1, human FolR1; conditions: read-out: KD huFolR1; Fab-format, generic multi-framework sub-libraries, 25° C.
Description: as §5, §6

murine FolR1 [15] = target: murine FolR1 (Mus musculus, UniProt P35846, C103A); conditions: Fab-format, generic multi-framework sub-libraries, 25° C.
Description: as §5, §6

[16] = bivalent binding (avidity), ligand huFolR1

| Molecule | Binding to cyFolR1 (cynomolgus FolR1 [1]) | Binding to huFolR1 (human FolR1 [2]) | Binding to huFolR2 (human FolR2 [3]) | Binding to huFolR3 (human FolR3 [4]) | Binding to muFolR1 (murine FolR1 [5]) | KD huFolR2 (human FolR2 [11]) | KD huFolR3 (human FolR3 [12]) | Kd (cynomolgus FolR1 [13]) [nM] | Kd (human FolR1 [14]) [nM] | KD muFolR1 (murine FolR1 [15]) | also measured |
| --- | --- | --- | --- | --- | --- | --- | --- | --- | --- | --- | --- |
| B1 | + | + | − | − | + | no binding | no binding |  |  |  | dissociation from huFolR1 (in words) [6]: dissociated rapidly from huFolR1; ka [6, 16]: 2.62e+06 M⁻¹ s⁻¹; kd [6, 16]: 0.0151 s⁻¹; ka [7]: 3.02e+06 M⁻¹ s⁻¹; kd [7]: 0.016 s⁻¹; ka [8]: 370000 M⁻¹ s⁻¹; kd [8]: 0.000603 s⁻¹; epitope characterization on human FolR1 (in words) (huFolR1-Fc): binds to a different epitope than Mov19 and Farletuzumab; epitope characterization on human FolR1 (in words) (huFolR1-Fc; listed as 36F2 IgG): Measure not possible, huFolR1 dissociates too rapidly; specificity for human FolR1 versus human FolR2 on transfected HEK cells [9]: specifically to human FolR1 and not to human FolR2; binding to cyno FolR1 on transfected HEK cells [10]: bind comparably well human and cyno FoLR1 |
| B2 | + | + | + | + | − | no binding | no binding | 5.9 | 8.6 | no binding |  |
| B3 | + | + | + | + | − | no binding | no binding | 9.4 | 14.5 | no binding |  |
| B4 | + | + | + | + | + | no binding | no binding | 794 | 632 |  |  |
